From patent publication US20200079833A1 (AstraZeneca / MedImmune, published 2020)
Starred links: 1 amine or outer side, 2 acyl side, 3 side chain; linkers in the order of their positions; H or OH if unused. Non-standard residues stand in square brackets, D forms with d. Groups on a side chain read outwards from the residue. Primed or numbered codes have the meaning given here. No end group written: not given here. *: point of attachment. γGlu = O=C(O)[C@H](CCC(=O)[*:2])N[*:1]; αMeF = C[C@](N)(Cc1ccccc1)C(=O)O; αMeK = C[C@](N)(CCCCN)C(=O)O; Lauroyl = CCCCCCCCCCCC(=O)*; αMeS = C[C@](N)(CO)C(=O)O; PEG2′ = not defined here; Aib = CC(C)(N)C(=O)O

T1: glucose-dependent insulinotropic peptide (gastric inhibitory polypeptide) receptor (GIPR), primary cAMP assay … (human, UniProt P48546 22-466)
T1 sequence (looked up): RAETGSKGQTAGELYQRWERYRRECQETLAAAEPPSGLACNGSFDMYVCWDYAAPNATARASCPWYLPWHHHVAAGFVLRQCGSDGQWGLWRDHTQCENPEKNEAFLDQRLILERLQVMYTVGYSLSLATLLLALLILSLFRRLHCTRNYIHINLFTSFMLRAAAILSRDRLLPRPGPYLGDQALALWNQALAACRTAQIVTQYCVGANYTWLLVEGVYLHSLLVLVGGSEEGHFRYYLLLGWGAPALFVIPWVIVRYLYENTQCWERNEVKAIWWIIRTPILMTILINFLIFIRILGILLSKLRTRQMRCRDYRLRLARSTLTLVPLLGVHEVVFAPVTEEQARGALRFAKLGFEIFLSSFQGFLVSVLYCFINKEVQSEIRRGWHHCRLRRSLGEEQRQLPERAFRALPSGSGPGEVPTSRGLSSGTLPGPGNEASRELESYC


Columns and labels:
Experiment in all cases: cell-based or functional assay
[1] = target: T1, glucose-dependent insulinotropic …
[2] = target: glucagon receptor (GCGR), primary cAMP assay cell line (human, UniProt P47871 26-477)
[3] = target: GLP-1 receptor (GLP-1R), primary cAMP assay cell line (human, UniProt P43220 24-463)

Sequence of glucagon receptor (GCGR), primary cAMP assay cell line (P47871 26-477): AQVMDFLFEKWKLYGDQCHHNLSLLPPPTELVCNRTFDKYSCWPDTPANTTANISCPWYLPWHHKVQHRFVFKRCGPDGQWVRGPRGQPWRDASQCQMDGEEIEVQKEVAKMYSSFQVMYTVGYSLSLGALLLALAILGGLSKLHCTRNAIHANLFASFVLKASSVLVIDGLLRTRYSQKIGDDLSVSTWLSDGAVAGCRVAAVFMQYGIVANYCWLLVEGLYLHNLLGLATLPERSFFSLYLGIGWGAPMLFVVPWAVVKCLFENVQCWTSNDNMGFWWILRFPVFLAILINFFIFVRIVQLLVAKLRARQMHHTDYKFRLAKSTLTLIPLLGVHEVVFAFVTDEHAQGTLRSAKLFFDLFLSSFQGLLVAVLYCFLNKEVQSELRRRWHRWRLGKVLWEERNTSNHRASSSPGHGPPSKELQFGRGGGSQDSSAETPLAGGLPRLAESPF

Binder | cAMP Primary assay EC50, n1 [1] | cAMP Primary assay EC50, n2 [1] | cAMP Primary assay EC50, n1 [2] | cAMP Primary assay EC50, n2 [2] | cAMP Primary assay EC50, Mean pM GLP-1R [3] | cAMP Primary assay EC50, n1 [3] | cAMP Primary assay EC50, n2 [3]
H[Aib]EGS[αMeF]TSDK([PEG2′-PEG2′-γGlu-Lauroyl])SSYLEGEAA[αMeK]K([PEG2′-PEG2′-γGlu-Lauroyl])FIK([PEG2′-PEG2′-γGlu-Lauroyl])FVVEGG-NH2 [SEQ ID NO: 442] | 19.7 nM | 19.7 nM | 19.7 nM | 19.7 nM | 82 pM | 0.0609 nM | 0.103 nM
H[Aib]EGS[αMeF]TSDK([PEG2′-PEG2′-γGlu-Lauroyl])SSYLEGK([PEG2′-PEG2′-γGlu-Lauroyl])AA[αMeK]EFIK([PEG2′-PEG2′-γGlu-Lauroyl])FVVEGG-NH2 [SEQ ID NO: 440] | 19.7 nM | 19.7 nM | 19.7 nM | 19.7 nM | 130 pM | 0.0967 nM | 0.164 nM
H[Aib]EGS[αMeF]TSDV[αMeS]SK([PEG2′-PEG2′-γGlu-Lauroyl])LEK([PEG2′-PEG2′-γGlu-Lauroyl])EAA[αMeK]EFIK([PEG2′-PEG2′-γGlu-Lauroyl])FVVEGG-NH2 [SEQ ID NO: 447] | 19.7 nM | 19.7 nM | 19.7 nM | 19.7 nM | 150 pM | 0.123 nM | 0.176 nM
H[Aib]EGS[αMeF]TSDVSK([PEG2′-PEG2′-γGlu-Lauroyl])YLEK([PEG2′-PEG2′-γGlu-Lauroyl])EAA[αMeK]EFIK([PEG2′-PEG2′-γGlu-Lauroyl])FVVEGG-NH2 [SEQ ID NO: 443] | 19.4 nM | 19.4 nM | 19.4 nM | 19.4 nM | 223 pM | 0.192 nM | 0.254 nM
H[Aib]EGS[αMeF]TSDK([PEG2′-PEG2′-γGlu-Lauroyl])SSYLEK([PEG2′-PEG2′-γGlu-Lauroyl])EAA[αMeK]EFIK([PEG2′-PEG2′-γGlu-Lauroyl])FVVEGG-NH2 [SEQ ID NO: 439] | 19.5 nM | 19.5 nM | 19.5 nM | 19.5 nM | 97 pM | 0.0599 nM | 0.134 nM
H[Aib]EGS[αMeF]TSDV[αMeS]SK([PEG2′-PEG2′-γGlu-Lauroyl])LEGK([PEG2′-PEG2′-γGlu-Lauroyl])AA[αMeK]EFIK([PEG2′-PEG2′-γGlu-Lauroyl])FVVEGG-NH2 [SEQ ID NO: 448] | 19.9 nM | 19.9 nM | 19.9 nM | 19.9 nM | 92.4 pM | 0.0788 nM | 0.106 nM
H[Aib]EGS[αMeF]TSDK([PEG2′-PEG2′-γGlu-Lauroyl])SSYLEGEK([PEG2′-PEG2′-γGlu-Lauroyl])A[αMeK]EFIK([PEG2′-PEG2′-γGlu-Lauroyl])FVVEGG-NH2 [SEQ ID NO: 441] | 19.5 nM | 19.5 nM | 19.5 nM | 19.5 nM | 176 pM | 0.11 nM | 0.241 nM
H[Aib]EGS[αMeF]TSDVSK([PEG2′-PEG2′-γGlu-Lauroyl])YLEGEK([PEG2′-PEG2′-γGlu-Lauroyl])A[αMeK]EFIK([PEG2′-PEG2′-γGlu-Lauroyl])FVVEGG-NH2 [SEQ ID NO: 445] | 19.5 nM | 19.5 nM | 19.5 nM | 19.5 nM | 260 pM | 0.242 nM | 0.277 nM
H[Aib]EGS[αMeF]TSDVSK([PEG2′-PEG2′-γGlu-Lauroyl])YLEGK([PEG2′-PEG2′-γGlu-Lauroyl])AA[αMeK]EFIK([PEG2′-PEG2′-γGlu-Lauroyl])FVVEGG-NH2 [SEQ ID NO: 444] | 19.7 nM | 19.7 nM | 19.7 nM | 19.7 nM | 144 pM | 0.125 nM | 0.162 nM
H[Aib]EGS[αMeF]TSDV[αMeS]SK([PEG2′-PEG2′-γGlu-Lauroyl])LEGEK([PEG2′-PEG2′-γGlu-Lauroyl])A[αMeK]EFIK([PEG2′-PEG2′-γGlu-Lauroyl])FVVEGG-NH2 [SEQ ID NO: 449] | 19.7 nM | 19.7 nM | 19.7 nM | 19.7 nM | 246 pM | 0.216 nM | 0.276 nM
H[Aib]EGS[αMeF]TSDVSK([PEG2′-PEG2′-γGlu-Lauroyl])YLEGEAA[αMeK]K([PEG2′-PEG2′-γGlu-Lauroyl])FIK([PEG2′-PEG2′-γGlu-Lauroyl])FVVEGG-NH2 [SEQ ID NO: 446] | 19.7 nM | 19.7 nM | 19.7 nM | 19.7 nM | 107 pM | 0.0873 nM | 0.127 nM
